Test results from PMC9588798.

Molecular target: Human IgM heavy (μ) chain of the full-length IgM pentamer from myeloma (human) (UniProt P01871)
Test: cryo-EM structure; full-length human IgM pentamer without secretory component, 0.25 mg/ml, in PBS; single-particle cryo-EM, 3D variability analysis and focused refinement on subunit 1; models PDB 6KXS, 4JVU and 2AGJ rigidly docked

stoichiometry N: 10
Substance: Human IgM heavy (μ) chain of the full-length IgM pentamer from myeloma (from UniProt P01871 106-433) (natural protein)
